Measured values taken from US6696546.

How the values were obtained:
[1] = test system: 8-mer PAP CRM-derived peptide (SKIRILVG)
[2] = molecular target: bacterial produced, purified his-PAP I (UniProt P25500)
[3] = test system: 8-mer peptide of scrambled sequence (LRSGIKVI)

bacterial produced, purified his-PAP I, sequence (P25500 other isoform, or with tags, fused parts or gaps): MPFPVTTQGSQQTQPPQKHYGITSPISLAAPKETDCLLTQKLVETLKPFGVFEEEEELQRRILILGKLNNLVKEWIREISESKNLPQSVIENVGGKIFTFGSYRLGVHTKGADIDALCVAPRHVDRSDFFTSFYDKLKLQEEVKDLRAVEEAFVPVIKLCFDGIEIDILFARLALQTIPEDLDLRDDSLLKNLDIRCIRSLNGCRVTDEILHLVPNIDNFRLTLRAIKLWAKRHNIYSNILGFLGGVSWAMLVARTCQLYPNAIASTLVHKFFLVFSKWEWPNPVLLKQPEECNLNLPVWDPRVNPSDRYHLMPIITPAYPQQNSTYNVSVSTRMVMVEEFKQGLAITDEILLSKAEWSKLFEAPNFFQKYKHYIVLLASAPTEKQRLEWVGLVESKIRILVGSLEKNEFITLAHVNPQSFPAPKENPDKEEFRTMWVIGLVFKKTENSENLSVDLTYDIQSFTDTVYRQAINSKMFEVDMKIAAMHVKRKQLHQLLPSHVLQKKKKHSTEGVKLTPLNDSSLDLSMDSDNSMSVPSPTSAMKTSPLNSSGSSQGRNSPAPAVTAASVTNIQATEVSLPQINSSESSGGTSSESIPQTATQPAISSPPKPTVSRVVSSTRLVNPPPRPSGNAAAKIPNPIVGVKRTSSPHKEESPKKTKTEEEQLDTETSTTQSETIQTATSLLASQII

With human cyclin A/flu-tagged cdk2 as the substance, how does the “pRB phosphorylation by cyclin A/cdk2 (in vitro kinase assay, 32P, autoradiography; peptide at 9 µM and 18 µM)” value [1] read?
Its value is “PAP's CRM effectively inhibited pRB phosphorylation by cyclin A/cdk2 (lanes 2 and 3)”.

And the “32P incorporation into PAP (in vitro kinase assay, autoradiography)” value [2]?
Its value is 32P was efficiently incorporated into PAP.

What about the “pRB phosphorylation by cyclin A/cdk2 (in vitro kinase assay, 32P; peptide at 9 µM and 18 µM)” value [3] of the same substance?
Its value is “a peptide with PAP's CRM scrambled was also tested, and it showed no effect on pRB phosphorylation (lanes 4 and 5)”.

“human cyclin B1/flu epitope-tagged p34cdc2” was tested. Which “pRB phosphorylation by cyclin B1/cdc2 (in vitro kinase assay, 32P; peptide at 18 µM)” value [1] did it give?
Its value is “PAP's CRM also strongly and specifically inhibited phosphorylation of pRB by cyclin B1/cdc2”.
